Results: patent US20210380703A1 (RIGEL PHARMACEUTICALS, published 2021)

How the values were obtained:
[1] = target: Mouse ACVR2A (mouse, UniProt P27038 20-135, limits assumed); test: ELISA
Protocol: (§1) The binding of ACVR2A-specific monoclonal antibodies to human ACVR2A, mouse ACVR2A, biotinylated goat anti-human kappa light chain (positive control) and human Fc (negative control) were determined by ELISA.

[2] = target: T1, Human ACVR2A (human, UniProt P27037 20-135, limits assumed); test: ELISA
T1 construct: also called activin receptor, type II A
Protocol: as §1

[3] = target: T2, Goat anti-Human Kappa; test: ELISA; positive control
T2 construct: Positive control; also called biotinylated goat anti-human kappa light chain
Protocol: as §1
Note: test concentration or dose not given here.

T1 sequence (P27037 20-135 limits assumed): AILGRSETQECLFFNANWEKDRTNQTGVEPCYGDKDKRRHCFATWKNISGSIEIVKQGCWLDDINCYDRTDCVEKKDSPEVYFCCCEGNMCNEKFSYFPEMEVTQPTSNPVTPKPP
Mouse ACVR2A, sequence (P27038 20-135 limits assumed): as the sequence (P27037 20-135 limits assumed) above, with K20R, V73I counted along it

Row | Binder | optical density [1] [OD] | optical density [2] [OD] | optical density [3] [OD]
1 | 365_E01 (antibody, V domains shown, VH/VL only) VH: EVQLLESGGGLVQPGGSLRLSCAASGFTFSDYSMNWVRQAPGKGLEWVSGINYNSGYKGYADSVKGRFTISRDNSKNTLYLQMNSLRAEDTAVYYCARSANWHDTALDYWGQGTLVTVSS VL: DIQMTQSPSSLSASVGDRVTITCRASQSIISYLNWYQQKPGKAPKLLIYAATSRASGVPSRFSGSGSGTDFTLTISSLQPEDFATYYCQQSYDSPLTFGGGTKVEIK | 2.84 | 2.91 | 3.54
2 | 365_H05 (antibody, V domains shown, VH/VL only) VH: EVQLLESGGGLVQPGGSLRLSCAASGFTFSSYGMNWVRQAPGKGLEWVAGINYNGGYTSYADSVKGRFTISRDNSKNTLYLQMNSLRAEDTAVYYCARGATWHDTHLDYWGQGTLVTVSS VL: DIQMTQSPSSLSASVGDRVTITCRASQSILTYVNWYQQKPGKAPKLLIYAATSLHSGVPSRFSGSGSGTDFTLTISSLQPEDFATYYCQQSYSTPLTFGGGTKVEIK | 2.19 | 2.1 | 3.46
3 | 365_F05 (antibody, V domains shown, VH/VL only) VH: EVQLLESGGGLVQPGGSLRLSCAASGFTFSSYGMNWVRQAPGKGLEWVASINYNGGYTSYADSVKGRFTISRDNSKNTLYLQMNSLRAEDTAVYYCARGATWHDTHLDYWGQGTLVTVSS VL: DIQMTQSPSSLSASVGDRVTITCRASQSIVTYVNWYQQKPGKAPKLLIYAATSRASGVPSRFSGSGSGTDFTLTISSLQPEDFATYYCQQSYETPLTFGGGTKVEIK | 2.23 | 2.14 | 3.42
4 | 365_G01 (antibody, V domains shown, VH/VL only) VH: EVQLLESGGGLVQPGGSLRLSCAASGFTFDSYGMNWVRQAPGKGLEWVAGINYNSGYKSYADSVKGRFTISRDNSKNTLYLQMNSLRAEDTAVYYCARSANWHDTALDYWGQGTLVTVSS VL: DIQMTQSPSSLSASVGDRVTITCRASQSILTYVNWYQQKPGKAPKLLIYATTSRASGVPSRFSGSGSGTDFTLTISSLQPEDFATYYCQQSYDSPLTFGGGTKVEIK | 2.65 | 2.48 | 3.45
5 | 365_E05 (antibody, V domains shown, VH/VL only) VH: EVQLLESGGGLVQPGGSLRLSCAASGFTFSSYGMHWVRQAPGKGLEWVAGINYNGGYTSYADSVKGRFTISRDNSKNTLYLQMNSLRAEDTAVYYCARSANWHDTALDYWGQGTLVTVSS VL: DIQMTQSPSSLSASVGDRVTITCRASQSIVSYVNWYQQKPGKAPKLLIYAATSLASGVPSRFSGSGSGTDFTLTISSLQPEDFATYYCQQSYDNPLTFGGGTKVEIK | 2.44 | 2.18 | 3.36
6 | 365_F12 (antibody, V domains shown, VH/VL only) VH: EVQLLESGGGLVQPGGSLRLSCAASGFTFSDYSMNWVRQAPGKGLEWVSGINYNGGYTSYADSVKGRFTISRDNSKNTLYLQMNSLRAEDTAVYYCARSANWHDTHLDYWGQGTLVTVSS VL: DIQMTQSPSSLSASVGDRVTITCRASQSILTYVNWYQQKPGKAPKLVIYAATSRHSGVPSRFSGSGSGTDFTLTISSLQPEDFATYYCQQSYETPLTFGGGTKVEIK | 2.83 | 2.91 | 3.63
7 | 365_G11 (antibody, V domains shown, VH/VL only) VH: EVQLLESGGGLVQPGGSLRLSCAASGFTFSSYGMNWVRQAPGKGLEWVANINYNGGYTGYADSVKGRFTISRDNSKNTLYLQMNSLRAEDTAVYYCARSANWHDTALDYWGQGTLVTVSS VL: DIQMTQSPSSLSASVGDRVTITCRASQSIITYVNWYQQKPGKAPKLLIYAVTSRHSGVPSRFSGSGSGTDFTLTISSLQPEDFATYYCQQSYNSPLTFGGGTKVEIK | 1.78 | 1.75 | 3.47
8 | 365_H06 (antibody, V domains shown, VH/VL only) VH: EVQLLESGGGLVQPGGSLRLSCAASGFTFSSYGMNWVRQAPGKGLEWVSGINYNSGYTGYADSVKGRFTISRDNSKNTLYLQMNSLRAEDTAVYYCARSANWHDTALDYWGQGTLVTVSS VL: DIQMTQSPSSLSASVGDRVTITCRASQSISSYVNWYQQKPGKAPKLLIYAATSRASGVPSRFSGSGSGTDFTLTISSLQPEDFATYYCQQSYSTPLTFGGGTKVEIK | 2.46 | 2.24 | 3.44
9 | 365_E09 (antibody, V domains shown, VH/VL only) VH: EVQLLESGGGLVQPGGSLRLSCAASGFTFSSYGMHWVRQAPGKGLEWVASINYNSGYKSYADSVKGRFTISRDNSKNTLYLQMNSLRAEDTAVYYCARSANWHDTALDYWGQGTLVTVSS VL: DIQMTQSPSSLSASVGDRVTITCRASQSILTYVNWYQQKPGKAPKLVIYAATSRASGVPSRFSGSGSGTDFTLTISSLQPEDFATYYCQQSDDSPLTFGGGTKVEIK | 2.16 | 1.91 | 3.47
10 | 365_E07 (antibody, V domains shown, VH/VL only) VH: EVQLLESGGGLVQPGGSLRLSCAASGFTFDSYGMHWVRQAPGKGLEWVSGINYNSGYTSYADSVKGRFTISRDNSKNTLYLQMNSLRAEDTAVYYCAKSANWHDTHLDYWGQGTLVTVSS VL: DIQMTQSPSSLSASVGDRVTITCRASQSILSYLNWYQQKPGKAPKLLIYAATSRASGVPSRFSGSGSGTDFTLTISSLQPEDFATYYCQQSYDNPLTFGGGTKVEIK | 2.7 | 2.38 | 3.51
11 | 365_H10 (antibody, V domains shown, VH/VL only) VH: EVQLLESGGGLVQPGGSLRLSCAASGFTFDSYGMNWVRQAPGKGLEWVAGINYNSGYKSYADSVKGRFTISRDNSKNTLYLQMNSLRAEDTAVYYCARSANWHDTHLDYWGQGTLVTVSS VL: DIQMTQSPSSLSASVGDRVTITCRASQSIVTYVNWYQQKPGKAPKLVIYAATSLASGVPSRFSGSGSGTDFTLTISSLQPEDFATYYCQQSYNTPLTFGGGTKVEIK | 2.82 | 2.68 | 3.51
12 | 365_E11 (antibody, V domains shown, VH/VL only) VH: EVQLLESGGGLVQPGGSLRLSCAASGFTFDDYSMNWVRQAPGKGLEWVSSINYNGGYKSYADSVKGRFTISRDNSKNTLYLQMNSLRAEDTAVYYCARGATWHDTHLDYWGQGTLVTVSS VL: not shown | 1.74 | 1.74 | 3.57
13 | 365_F06 (antibody, V domains shown, VH/VL only) VH: EVQLLESGGGLVQPGGSLRLSCAASGFTFSSYGMNWVRQAPGKGLEWVAGINYNSGYKSYADSVKGRFTISRDNSKNTLYLQMNSLRAEDTAVYYCARSANWHDTALDYWGQGTLVTVSS VL: DIQMTQSPSSLSASVGDRVTITCRASQSILSYVNWYQQKPGKAPKLLIYAATSRASGVPSRFSGSGSGTDFTLTISSLQPEDFATYYCQQSDNLPLTFGGGTKVEIK | 2.08 | 1.95 | 3.4
14 | 365_H02 (antibody, V domains shown, VH/VL only) VH: EVQLLESGGGLVQPGGSLRLSCAASGFTFSDYGMNWVRQAPGKGLEWVSSINYNGGYTGYADSVKGRFTISRDNSKNTLYLQMNSLRAEDTAVYYCARSANWHDTHLDYWGQGTLVTVSS VL: DIQMTQSPSSLSASVGDRVTITCRASQSILTYLNWYQQKPGKAPKLLIYAATSRASGVPSRFSGSGSGTDFTLTISSLQPEDFATYYCQQSYENPLTFGGGTKVEIK | 2.91 | 2.73 | 3.58
